Measurements taken from publication PMC4930479.

Tests used:
[1] = biological target: VEGF165 (human); experiment: SEC-MALS; inhibitor and ligand mixed at molar ratios 5:1 to 1:5 (20 µM and 100 µM), 12 h at ambient temperature; free proteins injected separately; Superose 12 10/300 GL, 10 mM phosphate, 500 mM NaCl, pH 7.0, 0.3 mL/min
[2] = biological target: T1, PlGF-2 (UniProt P49763); experiment: as above
T1 sequence: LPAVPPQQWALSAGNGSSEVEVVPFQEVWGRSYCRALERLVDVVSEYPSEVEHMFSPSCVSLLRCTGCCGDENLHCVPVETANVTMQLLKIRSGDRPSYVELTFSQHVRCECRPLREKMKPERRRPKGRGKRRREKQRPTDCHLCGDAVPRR

[3] = biological target: FcγRI (human) (UniProt P12314); experiment: SPR; His-tagged or myc-myc His-tagged Fcγ receptors captured (about 200 RU) on anti-histidine antibody on a CM4 or CM5 chip; inhibitor with or without equimolar VEGF165 or VEGF121 injected (1 µM in Table 1); Biacore 3000, 25 °C, HBS-T pH 7.4; only kd and t1/2 calculated
[4] = biological target: FcγRIIIa (176F) (human) (UniProt P08637); experiment: as above
[5] = biological target: FcγRIIIa (176V) (human) (UniProt P08637); experiment: as above
[6] = biological target: FcγRIIIb (human) (UniProt O75015); experiment: as above
[7] = biological target: FcγRIIa (131R allele) (human) (UniProt P12318); experiment: as above
[8] = biological target: FcγRIIb (human) (UniProt P31994); experiment: as above
FcγRIIb (human), sequence (P31994 43-217): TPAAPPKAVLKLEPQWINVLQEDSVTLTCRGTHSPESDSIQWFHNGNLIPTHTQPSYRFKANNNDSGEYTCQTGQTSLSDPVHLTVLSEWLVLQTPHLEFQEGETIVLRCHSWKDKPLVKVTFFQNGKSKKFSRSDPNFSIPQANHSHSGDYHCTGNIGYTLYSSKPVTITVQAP

FcγRIIIb (human), sequence (O75015 17-200): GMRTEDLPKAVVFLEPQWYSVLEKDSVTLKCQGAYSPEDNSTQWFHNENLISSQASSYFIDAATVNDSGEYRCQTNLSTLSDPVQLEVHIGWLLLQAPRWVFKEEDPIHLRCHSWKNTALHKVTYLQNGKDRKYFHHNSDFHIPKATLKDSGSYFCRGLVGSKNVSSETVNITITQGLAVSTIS
aflibercept (Fc fusion), sequence (chain): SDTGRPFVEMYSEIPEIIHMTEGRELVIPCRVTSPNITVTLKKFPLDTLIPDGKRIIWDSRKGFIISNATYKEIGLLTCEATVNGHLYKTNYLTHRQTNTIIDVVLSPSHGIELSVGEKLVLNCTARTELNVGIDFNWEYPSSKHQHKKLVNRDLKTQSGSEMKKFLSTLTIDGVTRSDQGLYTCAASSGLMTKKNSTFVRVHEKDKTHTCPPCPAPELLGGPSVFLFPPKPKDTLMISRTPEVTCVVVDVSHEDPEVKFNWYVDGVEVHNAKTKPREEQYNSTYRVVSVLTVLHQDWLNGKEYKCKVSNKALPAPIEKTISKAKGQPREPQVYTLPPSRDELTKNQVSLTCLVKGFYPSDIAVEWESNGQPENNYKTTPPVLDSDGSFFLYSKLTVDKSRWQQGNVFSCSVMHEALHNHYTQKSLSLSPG
FcγRIIIa (176V) (human), sequence (P08637 17-254 F176V): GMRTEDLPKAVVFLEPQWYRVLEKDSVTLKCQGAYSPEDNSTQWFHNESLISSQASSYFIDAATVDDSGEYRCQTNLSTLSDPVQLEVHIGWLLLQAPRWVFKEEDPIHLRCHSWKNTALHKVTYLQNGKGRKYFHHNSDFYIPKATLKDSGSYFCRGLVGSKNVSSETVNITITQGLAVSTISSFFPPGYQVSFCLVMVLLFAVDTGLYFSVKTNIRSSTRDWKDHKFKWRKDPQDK
FcγRIIIa (176F) (human), sequence (P08637 17-254): as the sequence (P08637 17-254 F176V) above, with V160F counted along it
FcγRI (human), sequence (P12314 16-292): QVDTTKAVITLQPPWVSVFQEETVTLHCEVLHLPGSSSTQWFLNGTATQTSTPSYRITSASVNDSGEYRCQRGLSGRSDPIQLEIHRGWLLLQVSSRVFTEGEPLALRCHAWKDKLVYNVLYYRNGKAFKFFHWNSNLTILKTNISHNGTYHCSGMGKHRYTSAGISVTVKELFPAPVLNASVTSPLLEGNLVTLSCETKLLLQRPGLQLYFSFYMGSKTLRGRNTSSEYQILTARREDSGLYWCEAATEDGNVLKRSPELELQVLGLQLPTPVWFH

stoichiometry N [1]	stoichiometry N (aflibercept per PlGF-2 dimer) [2]	stoichiometry N (aflibercept per VEGF165 dimer) [1]	t1/2 [3] [min]	t1/2 [4] [min]	t1/2 [5] [min]	t1/2 [6] [min]	t1/2 [7] [min]	koff [3] [s⁻¹]	koff [4] [s⁻¹]	koff [5] [s⁻¹]	koff [6] [s⁻¹]	koff [7] [s⁻¹]	koff [8] [s⁻¹]	t1/2 [8] [min]	Substance
2															VEGF165 (ligand)
	1	1	16	0.233	1.52	0.0667									aflibercept (Fc fusion)
			16.9	0.317	2.02	0.0833	0.0667								aflibercept:VEGF121 complex
			18.7	0.3	1.88	0.0667	0.05	0.000617	0.0392	0.00614	0.164	0.205	0.174	0.0667	aflibercept:VEGF165 complex
			15.4	0.183	1.43	0.0667	0.1	0.000749	0.0626	0.00803	0.196	0.111	0.179	0.0667	bevacizumab (antibody)
			57			4.42								6.33	bevacizumab:VEGF121 complex
			47.9			7.72								11.8	bevacizumab:VEGF165 complex
